Experiments:
PC3 tumor = experiment: In vivo efficacy, subcutaneous tumor xenograft; parameters: species or system Athymic nu/nu mice; conditions: intraperitoneal, every fourth day, 5 doses; tumor volume by caliper
Description: (§3) Athymic nu/nu (Harlan, Somerville, N.J.) female mice 4-6 weeks of age were injected subcutaneously with 5×10^6 tumor cells. […] Each treatment group consisted of groups of mice ranging in number from 10-12.
(§4) Tumor volume measurements were taken with a caliper routinely (1-2 times/week) starting at the initiation of drug treatment.

MDA-MB231 tumor = experiment: In vivo efficacy, subcutaneous tumor xenograft; parameters: species or system Athymic nu/nu mice; conditions: intraperitoneal, every fourth day, 5 doses; tumor volume by caliper
Description: as §3, §4

PC3 cells = experiment: Fluorescent visualization of internalization of α-EphA2 antibodies; format: cell-based, human; conditions: 50 μg/ml Ab, 20 or 60 minutes at 37° C.
Description: FIG. 18. […] PC3 cells were labeled with either human α-EphA2 mAb (G5; panels A and B) or R347 isotype control (panel C). Cell surface attached antibodies were then allowed to internalize by incubating the cells under growth conditions for either zero (non-internalized: panels A and C) or […] (internalized: panel B). All cells were then fixed (4% formaldehyde), permeabilized (0.5% Triton X-100), and stained with AlexaFluor 488-Ab prior to addition of antifade mounting media and fluorescent microscopy examination.
(§1) Cells (PC3, HUVEC, or CT26) were grown for 24-48 hours at 37° C./5% CO2 at a concentration of 2.5-5.0×10^4 cells per 400 μl of appropriate growth media per chamber on Nunc's Tek II 8-chamber slides. […] Cells were then washed 2× with PBS and cell-surface-bound primary Abs were allowed to internalize by covering the cells with growth media and incubation at 37° C./5% CO2 for 0 minutes, 20 minutes (FIGS. 18A-C and 19), or 60 minutes (FIG. 17).
(§2) Subsequent to internalization, cells were fixed (4% paraformaldehyde), permeabilized (0.5% Triton X-100), and labeled with secondary AlexaFluor 488 goat-α-human IgG Ab (Biosource), with 2× cold PBS washing in between steps.
Finally, the cells were covered with […] Mounting Media with DAPI (Vector Labs) and a coverslip prior to examination and photography with fluorescent confocal microscope. […]

HuVec cells = experiment: as above; format: cell-based, human; conditions: 50 μg/ml Ab, 20 minutes at 37° C.
Description: as §1, §2
Finally, the cells were covered with […] Mounting Media with DAPI (Vector Labs) and a coverslip prior to examination and photography with fluorescent confocal microscope. Results of the antibody internalization experiments are shown in the fluorescent microscopy pictures of FIGS. 16, 17, 18A, 18B, 18C, and 19 herein. EphA2 was rapidly internalized in these cell lines upon binding the agonistic EphA2 antibodies.

EphA2 = target: T1, EphA2 (Homo sapiens, UniProt P29317); experiment: EphA2 receptor activation (phosphorylation, immunoprecipitation/Western); format: cell-based; conditions: HuVec cells
T1 construct: endogenous in cells; host or cells: HUVEC (human)
Description: Cells were grown overnight at 37° C./5% CO2 at a concentration of 0.5×10^6 cells per 3 ml of appropriate growth media per well in 6-well tissue culture plates. […] The cells were incubated for 15 minutes at 37° C./5% CO2 to activate EphA2 receptor. Subsequent to activation the cells were washed 1× with cold PBS and lysed on ice with 1% Triton X-100 lysis buffer containing Phosphatase Inhibitor Cocktails 1 and 2 (Sigma) and Complete Protease Inhibitor Cocktail Tablets (Roche), added as per manufacturer's recommendation. D7 α-EphA2 mAb and 50 μl of protein A sepharose beads pre-conjugated to rabbit anti-mouse IgG were mixed with lysate at 4° C. overnight to immunoprecipitate the proteins.
Protein lysates were resolved by 10% Bis-Tris NuPAGE Western gel and transferred electrophoretically to nitrocellulose membranes (Invitrogen) following manufacturer's protocol. […] See also Coffman et al., Cancer Res. 63: 7907-7912, 2003.

T1 sequence (P29317 24-976): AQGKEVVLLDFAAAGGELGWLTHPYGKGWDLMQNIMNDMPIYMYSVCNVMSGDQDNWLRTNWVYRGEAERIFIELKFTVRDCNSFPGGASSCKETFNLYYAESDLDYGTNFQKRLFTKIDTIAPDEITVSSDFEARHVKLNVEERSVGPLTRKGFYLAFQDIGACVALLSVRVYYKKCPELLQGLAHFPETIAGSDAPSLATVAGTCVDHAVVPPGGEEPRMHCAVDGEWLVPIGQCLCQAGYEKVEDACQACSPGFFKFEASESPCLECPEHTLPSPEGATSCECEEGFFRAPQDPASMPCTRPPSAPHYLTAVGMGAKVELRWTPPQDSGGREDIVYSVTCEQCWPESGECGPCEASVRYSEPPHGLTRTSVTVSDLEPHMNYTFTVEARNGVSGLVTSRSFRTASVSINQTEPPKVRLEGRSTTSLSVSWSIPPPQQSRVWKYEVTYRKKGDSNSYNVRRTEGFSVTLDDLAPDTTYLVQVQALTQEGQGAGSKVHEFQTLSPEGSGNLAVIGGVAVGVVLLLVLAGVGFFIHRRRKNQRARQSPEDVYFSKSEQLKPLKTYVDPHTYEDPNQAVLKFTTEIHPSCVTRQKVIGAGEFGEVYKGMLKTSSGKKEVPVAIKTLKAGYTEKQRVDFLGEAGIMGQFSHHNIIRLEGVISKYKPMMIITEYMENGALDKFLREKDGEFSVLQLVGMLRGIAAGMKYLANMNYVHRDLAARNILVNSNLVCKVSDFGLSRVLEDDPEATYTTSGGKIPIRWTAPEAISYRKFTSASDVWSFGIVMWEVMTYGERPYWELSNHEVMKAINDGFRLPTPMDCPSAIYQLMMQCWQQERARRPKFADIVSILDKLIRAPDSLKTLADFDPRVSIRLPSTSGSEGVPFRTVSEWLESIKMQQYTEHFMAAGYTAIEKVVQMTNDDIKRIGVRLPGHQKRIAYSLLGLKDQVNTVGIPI

B1: G5vcMMAF: anti-EphA2 antibody G5 conjugated to MMAF with the valine-citrulline (vc) linker (conjugate)
VH: QMQLVQSGPEVKKPGTSVKVSCKASGFTFTDYSMNWVRQARGQRLEWIGFIRNKANDYTTEYSASVKGRVTITRDMSTSTAYMELSSLRSEDTAVYYCARYPRYHAMDSWGQGTSVTVSS
VL: DIQMTQSPSSLSASVGDRVTITCRASQSISNNLHWYQQKPGKAPKLLIKYVFQSISGVPSRFSGSGSGTDFTFTISSLQPEDFATYYCQQSNSWPLTFGGGTKVEIKG
modifications: non-natural residues
notes: anti-EphA2 antibody G5 conjugated to MMAF with the valine-citrulline (vc) linker
PC3 tumor growth in vivo (PC3 tumor): specifically inhibited
MDA-MB231 tumor growth in vivo (MDA-MB231 tumor): specifically inhibited

B2: G5: humanized agonistic monoclonal antibody that binds EphA2; VH/VL SEQ ID NO. 103 and 104 (antibody, V domains shown)
VH: QMQLVQSGPEVKKPGTSVKVSCKASGFTFTDYSMNWVRQARGQRLEWIGFIRNKANDYTTEYSASVKGRVTITRDMSTSTAYMELSSLRSEDTAVYYCARYPRYHAMDSWGQGTSVTVSS
VL: DIQMTQSPSSLSASVGDRVTITCRASQSISNNLHWYQQKPGKAPKLLIKYVFQSISGVPSRFSGSGSGTDFTFTISSLQPEDFATYYCQQSNSWPLTFGGGTKVEIKG
modifications: Antibody variable region
internalization by immunofluorescence (PC3 cells): internalization

B3: 3F2vcMMAE: anti-EphA2 antibody 3F2 conjugated to MMAE with a vc linker (conjugate)
VH: EVQLVESGGGVVRPGGSLRLSCAASGFTVSDYSMNWVRQAPGKGLEWIGFIRNKANAYTTEYSASVKGRFTISRDDSKNTLYLQMNSLKTEDTAVYYCTTYPRYHAMDSWGQGTMVTVSS
VL: AIQLTQSPSSLSASVGDRVTITCRASQSISNNLHWYLQKPGQSPQLLIYYGFQSISGVPSRFSGSGSGTDFTLTISSLQPEDFATYYCQQANSWPLTFGGGTKLEIK
modifications: non-natural residues
notes: anti-EphA2 antibody 3F2 conjugated to MMAE with a vc linker
PC3 tumor growth in vivo (PC3 tumor): specifically inhibit

B4: 3F2: humanized agonistic monoclonal antibody that binds EphA2; VH/VL SEQ ID NO: 63 and 64 (antibody, V domains shown)
VH: EVQLVESGGGVVRPGGSLRLSCAASGFTVSDYSMNWVRQAPGKGLEWIGFIRNKANAYTTEYSASVKGRFTISRDDSKNTLYLQMNSLKTEDTAVYYCTTYPRYHAMDSWGQGTMVTVSS
VL: AIQLTQSPSSLSASVGDRVTITCRASQSISNNLHWYLQKPGQSPQLLIYYGFQSISGVPSRFSGSGSGTDFTLTISSLQPEDFATYYCQQANSWPLTFGGGTKLEIK
modifications: Antibody Variable Heavy chain; Antibody Variable region
internalization by immunofluorescence (HuVec cells): Internalization
EphA2 phosphorylation (EphA2): EphA2 phosphorylation

— patent publication US20090304721A1, “TOXIN […] RECEPTOR ANTIBODIES” (priority 2005, published 2009)
